Blank lines part the entries; values can stand above or below the binder they belong to.
B1: Soluble human recombinant p97 (melanotransferrin) (other)
chain: GMEVRWCATSDPEQHKCGNMSEAFREAGIQPSLLCVRGTSADHCVQLIAAQEADAITLDGGAIYEAGKEHGLKPVVGEVYDQEVGTSYYAVAVVRRSSHVTIDTLKGVKSCHTGINRTVGWNVPVGYLVESGRLSVMGCDVLKAVSDYFGGSCVPGAGETSYSESLCRLCRGDSSGEGVCDKSPLERYYDYSGAFRCLAEGAGDVAFVKHSTVLENTDGKTLPSWGQALLSQDFELLCRDGSRADVTEWRQCHLARVPAHAVVVRADTDGGLIFRLLNEGQRLFSHEGSSFQMFSSEAYGQKDLLFKDSTSELVPIATQTYEAWLGHEYLHAMKGLLCDPNRLPPYLRWCVLSTPEIQKCGDMAVAFRRQRLKPEIQCVSAKSPQHCMERIQAEQVDAVTLSGEDIYTAGKKYGLVPAAGEHYAPEDSSNSYYVVAVVRRDSSHAFTLDELRGKRSCHAGFGSPAGWDVPVGALIQRGFIRPKDCDVLTAVSEFFNASCVPVNNPKNYPSSLCALCVGDEQGRNKCVGNSQERYYGYRGAFRCLVENAGDVAFVRHTTVFDNTNGHNSEPWAAELRSEDYELLCPNGARAEVSQFAACNLAQIPPHAVMVRPDTNIFTVYGLLDKAQDLFGDDHNKNGFKMFDSSNYHGQDLLFKDATVRAVPVGEKTTYRGWLGLDYVAALEGMSSQQCSG
notes: Provided by Biomarin Pharmaceutical Inc; also called soluble p97; MTf

Columns and labels:
[1] = molecular target: the molecule itself; assay: SPR (BIAcore), soluble p97 injected over p97 immobilised on a CM5 chip
Method: (§1) Ringer solution or a 50 mM Tris/HCl buffer (pH 7.5) containing 150 mM NaCl and 50 mM CaCl₂ is used as the eluent buffer. Proteins are diluted in the corresponding eluent buffer and injected onto the sensor chip surface. Protein interactions are analyzed using both the Langmuir binding model, which is the simplest model for 1:1 interaction between analyte and immobilized ligand, and a two-state conformational change model which describes a 1:1 binding of analyte to immobilized ligand followed by a conformational change.
(§2) Transcytosis experiments are performed at 37° C. for 2 hrs. […] At the end of the experiment, radiolabelled proteins are measured in the lower chamber of each well by TCA precipitation.

plasminogen [2] = molecular target: T1, plasminogen (UniProt P00747 20-810); assay: cell-based or functional assay
T1 sequence (P00747 20-810 limits assumed): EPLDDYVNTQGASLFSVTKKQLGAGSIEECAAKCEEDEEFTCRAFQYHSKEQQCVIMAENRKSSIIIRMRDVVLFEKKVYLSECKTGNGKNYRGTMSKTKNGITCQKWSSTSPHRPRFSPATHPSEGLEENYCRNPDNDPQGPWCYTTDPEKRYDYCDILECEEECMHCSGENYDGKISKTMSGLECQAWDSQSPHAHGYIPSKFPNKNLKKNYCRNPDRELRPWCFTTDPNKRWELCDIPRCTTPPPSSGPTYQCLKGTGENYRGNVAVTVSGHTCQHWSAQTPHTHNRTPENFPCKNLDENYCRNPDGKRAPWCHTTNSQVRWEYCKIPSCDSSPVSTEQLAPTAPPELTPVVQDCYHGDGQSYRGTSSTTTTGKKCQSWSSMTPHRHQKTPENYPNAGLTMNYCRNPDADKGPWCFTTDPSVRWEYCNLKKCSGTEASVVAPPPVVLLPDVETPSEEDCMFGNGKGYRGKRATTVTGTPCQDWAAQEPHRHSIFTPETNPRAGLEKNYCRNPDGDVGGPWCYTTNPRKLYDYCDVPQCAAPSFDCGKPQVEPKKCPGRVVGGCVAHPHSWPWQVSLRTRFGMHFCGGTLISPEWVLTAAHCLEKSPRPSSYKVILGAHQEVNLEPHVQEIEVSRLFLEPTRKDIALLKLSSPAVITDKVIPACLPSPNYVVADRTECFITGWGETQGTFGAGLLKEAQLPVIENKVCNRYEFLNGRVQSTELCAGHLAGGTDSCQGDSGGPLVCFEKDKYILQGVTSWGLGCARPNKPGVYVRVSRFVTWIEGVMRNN

plasminogen [3] = molecular target: T1, plasminogen; assay: SPR (BIAcore), plasminogen over immobilised p97, two state conformational change model (ka1)
Method: as §1
(§3) The SPR response for these proteins is plotted in RU as a function of time.
(§4) About 8-10 ng/mm² of PAI-1 was also immobilized onto another well of a sensor chip surface using NHS/EDC coupling conditions.

plasminogen [4] = molecular target: T1, plasminogen; assay: SPR (BIAcore), various concentrations of p97 injected over immobilised plasminogen; plasminogen immobilized, p97 injected
Method: as §1

[5] = molecular target: T2, pro-urokinase plasminogen activator (pro-uPA) (UniProt P00749 21-431, limits assumed); assay: SPR (BIAcore), pro-uPA over immobilised p97, two state conformational change model (apparent KD)
T2 construct: Bought reagent; also called sc-uPA; scu-PA
Method: (§5) Protein interactions are analyzed using both the Langmuir binding model, which is the simplest model for 1:1 interaction between analyte and immobilized ligand, and a two-state conformational change model which describes a 1:1 binding of analyte to immobilized ligand followed by a conformational change.
as §3, §4

[6] = molecular target: T2, pro-urokinase plasminogen activator …; assay: SPR (BIAcore), pro-uPA over immobilised p97, two state conformational change model (kd1)
Method: as §5, §3, §4

plasminogen [7] = molecular target: T1, plasminogen; assay: SPR (BIAcore), plasminogen over immobilised p97, two state conformational change model (apparent KD)
Method: as §1, §3, §4

plasmin = plasmin (UniProt P00747 97-810, limits assumed); assay: SPR (BIAcore), plasmin injected over immobilised p97
Sequence of plasmin (P00747 97-810 limits assumed): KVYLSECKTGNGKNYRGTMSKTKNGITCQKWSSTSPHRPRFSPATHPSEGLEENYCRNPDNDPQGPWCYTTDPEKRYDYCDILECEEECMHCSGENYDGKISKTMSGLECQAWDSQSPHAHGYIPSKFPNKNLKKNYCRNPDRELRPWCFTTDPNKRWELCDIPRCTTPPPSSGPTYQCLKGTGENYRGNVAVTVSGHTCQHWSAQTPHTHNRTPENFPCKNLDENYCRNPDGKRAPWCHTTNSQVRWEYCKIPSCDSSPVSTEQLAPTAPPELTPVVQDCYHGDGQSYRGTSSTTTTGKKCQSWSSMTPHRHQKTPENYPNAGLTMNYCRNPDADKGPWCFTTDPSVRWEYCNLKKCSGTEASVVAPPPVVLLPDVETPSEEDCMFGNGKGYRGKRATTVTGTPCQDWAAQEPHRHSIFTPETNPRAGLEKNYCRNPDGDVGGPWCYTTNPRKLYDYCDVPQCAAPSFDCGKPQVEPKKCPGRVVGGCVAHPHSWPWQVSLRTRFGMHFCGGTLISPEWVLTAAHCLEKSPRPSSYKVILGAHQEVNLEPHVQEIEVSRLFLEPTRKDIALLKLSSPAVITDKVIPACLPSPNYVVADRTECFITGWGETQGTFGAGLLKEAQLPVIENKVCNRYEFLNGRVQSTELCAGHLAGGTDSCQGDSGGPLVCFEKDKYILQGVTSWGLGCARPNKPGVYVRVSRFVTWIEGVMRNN
Method: as §1, §3, §4

[8] = molecular target: T2, pro-urokinase plasminogen activator …; assay: SPR (BIAcore), two state conformational change model; text value differs from Table 3
Method: as §5, §3, §4

plasminogen [9] = molecular target: T1, plasminogen; assay: SPR (BIAcore), plasminogen over immobilised p97, two state conformational change model (kd1)
Method: as §1, §3, §4

plasminogen [10] = molecular target: T1, plasminogen; assay: SPR (BIAcore), p97 over immobilised plasminogen, two state conformation change model
Method: as §1

[11] = molecular target: T2, pro-urokinase plasminogen activator …; assay: SPR (BIAcore), pro-uPA over immobilised p97, two state conformational change model (ka1)
Method: as §5, §3, §4

[12] = molecular target: B1; assay: SPR (BIAcore), tPA injected over immobilised p97
Method: as §1, §3, §4

[13] = molecular target: B1; assay: not described (Discussion; presumably SPR)
[14] = molecular target: B1; assay: SPR (BIAcore), angiostatin injected over immobilised p97
Method: as §1, §3, §4

[15] = molecular target: B1; assay: SPR (BIAcore), RAP injected over immobilised p97
Method: as §1, §2

Binder: B1
binding result [1]: no binding (tested: 0.05 µg/µl (5 µg/100 µl))
increase of plasminogen activation by tPA after 180 minutes (VLK-peptide hydrolysis) (plasminogen [2]): 6 fold
increase of plasminogen activation by tPA in the presence of p97 (VLK peptide hydrolysis) (plasminogen [2]): 4 fold
kon (plasminogen [3]): 21000 M⁻¹ s⁻¹
Kd (plasminogen [4]): 275 nM
Kd [5]: 65 nM
koff [6]: 0.0017 s⁻¹
Kd (plasminogen [7]): 350 nM
binding result (plasmin): no binding (tested: 0.05 µg/µl)
kon [8]: 6600 M⁻¹ s⁻¹
koff (plasminogen [9]): 0.043 s⁻¹
Kd (plasminogen [10]): 260 nM
kon [11]: 6620 M⁻¹ s⁻¹

B2: tissue plasminogen activator (tPA) (enzyme, UniProt P00750 36-562, looked up)
chain: SYQVICRDEKTQMIYQQHQSWLRPVLRSNRVEYCWCNSGRAQCHSVPVKSCSEPRCFNGGTCQQALYFSDFVCQCPEGFAGKCCEIDTRATCYEDQGISYRGTWSTAESGAECTNWNSSALAQKPYSGRRPDAIRLGLGNHNYCRNPDRDSKPWCYVFKAGKYSSEFCSTPACSEGNSDCYFGNGSAYRGTHSLTESGASCLPWNSMILIGKVYTAQNPSAQALGLGKHNYCRNPDGDAKPWCHVLKNRRLTWEYCDVPSCSTCGLRQYSQPQFRIKGGLFADIASHPWQAAIFAKHRRSPGERFLCGGILISSCWILSAAHCFQERFPPHHLTVILGRTYRVVPGEEEQKFEVEKYIVHKEFDDDTYDNDIALLQLKSDSSRCAQESSVVRTVCLPPADLQLPDWTECELSGYGKHEALSPFYSERLKEAHVRLYPSSRCTSQHLLNRTVTDNMLCAGDTRSGGPQANLHDACQGDSGGPLVCLNDGRMTLVGIISWGLGCGQKDVPGVYTKVTNYLDWIRDNMRP
notes: Bought reagent
binding result [12]: no binding (tested: 0.05 µg/µl)

B3: ovalbumin (other, UniProt P01012 2-386, looked up)
chain: GSIGAASMEFCFDVFKELKVHHANENIFYCPIAIMSALAMVYLGAKDSTRTQINKVVRFDKLPGFGDSIEAQCGTSVNVHSSLRDILNQITKPNDVYSFSLASRLYAEERYPILPEYLQCVKELYRGGLEPINFQTAADQARELINSWVESQTNGIIRNVLQPSSVDSQTAMVLVNAIVFKGLWEKAFKDEDTQAMPFRVTEQESKPVQMMYQIGLFRVASMASEKMKILELPFASGTMSMLVLLPDEVSGLEQLESIINFEKLTEWTSSNVMEERKIKVYLPRMKMEEKYNLTSVLMAMGITDVFSSSANLSGISSAESLKISQAVHAAHAEINEAGREVVGSAEAGVDAASVSEEFRADHPFLFCIKHIATNAVLFFGRCVSP
binding result [13]: no binding

Now from value to binder:

binding result [14]: no binding (tested: 0.05 µg/µl)
B4: angiostatin (other, UniProt P00747 98-459, looked up)
chain: VYLSECKTGNGKNYRGTMSKTKNGITCQKWSSTSPHRPRFSPATHPSEGLEENYCRNPDNDPQGPWCYTTDPEKRYDYCDILECEEECMHCSGENYDGKISKTMSGLECQAWDSQSPHAHGYIPSKFPNKNLKKNYCRNPDRELRPWCFTTDPNKRWELCDIPRCTTPPPSSGPTYQCLKGTGENYRGNVAVTVSGHTCQHWSAQTPHTHNRTPENFPCKNLDENYCRNPDGKRAPWCHTTNSQVRWEYCKIPSCDSSPVSTEQLAPTAPPELTPVVQDCYHGDGQSYRGTSSTTTTGKKCQSWSSMTPHRHQKTPENYPNAGLTMNYCRNPDADKGPWCFTTDPSVRWEYCNLKKCSGTEA
notes: domain: angiostatin (plasminogen fragment)

binding result [15]: no binding (tested: 0.05 µg/µl)
B5: receptor-associated protein (RAP) (other, UniProt P30533 35-357, looked up)
chain: YSREKNQPKPSPKRESGEEFRMEKLNQLWEKAQRLHLPPVRLAELHADLKIQERDELAWKKLKLDGLDEDGEKEARLIRNLNVILAKYGLDGKKDARQVTSNSLSGTQEDGLDDPRLEKLWHKAKTSGKFSGEELDKLWREFLHHKEKVHEYNVLLETLSRTEEIHENVISPSDLSDIKGSVLHSRHTELKEKLRSINQGLDRLRRVSHQGYSTEAEFEEPRVIDLWDLAQSANLTDKELEAFREELKHFEAKIEKHNHYQKQLEIAHEKLRHAESVGDGERVSRSREKHALLEGRTKELGYTVKKHLQDLSGRISRARHNEL

— patent US20070053894A1 (TRANSFERT PLUS, published 2007)
